To fix the notation:
B1: Monocarboxylate transporter 1 (Rattus norvegicus (Rat)), P53987 (parent)
chain: MPPAIGGPVGYTPPDGGWGWAVVVGAFISIGFSYAFPKSITVFFKEIEIIFSATTSEVSWISSIMLAVMYAGGPISSILVNKYGSRPVMIAGGCLSGCGLIAASFCNTVQELYFCIGVIGGLGLAFNLNPALTMIGKYFYKKRPLANGLAMAGSPVFLSTLAPLNQAFFGIFGWRGSFLILGGLLLNCCVAGSLMRPIGPQQGKVEKLKSKESLQEAGKSDANTDLIGGSPKGEKLSVFQTVNKFLDLSLFTHRGFLLYLSGNVVMFFGLFTPLVFLSNYGKSKHFSSEKSAFLLSILAFVDMVARPSMGLAANTRWIRPRVQYFFAASVVANGVCHLLAPLSTTYVGFCIYAGVFGFAFGWLSSVLFETLMDLVGPQRFSSAVGLVTIVECCPVLLGPPLLGRLNDMYGDYKYTYWACGVILIIAGLYLFIGMGINYRLVAKEQKAEEKKRDGKEDETSTDVDEKPKKTMKETQSPAPLQNSSGDPAEEESPV
B2: Basigin (Homo sapiens), P35613 (parent)
chain: MAAALFVLLGFALLGTHGASGAAGFVQAPLSQQRWVGGSVELHCEAVGSPVPEIQWWFEGQGPNDTCSQLWDGARLDRVHIHATYHQHAASTISIDTLVEEDTGTYECRASNDPDRNHLTRAPRVKWVRAQAVVLVLEPGTVFTTVEDLGSKILLTCSLNDSATEVTGHRWLKGGVVLKEDALPGQKTEFKVDSDDQWGEYSCVFLPEPMGTANIQLHGPPRVKAVKSSEHINEGETAMLVCKSESVPPVTDWAWYKITDSEDKALMNGSESRFFVSSSQGRSELHIENLNMEADPGQYRCNGTSSKGSDQAIITLRVRSHLAALWPFLGIVAEVLVLVTIIFIYEKRRKPEDVLDDDDAGSAPLKSSGQHQNDKGKNVRQRNSS
partner: B1 chain

In experiment [1] the parent is B1. To be noted: with basi_human BSG.
The variants in experiment [2] derive from B1. The conditions noted are these: with basi_human BSG. This is another data set of the same source.
The variants in experiment [3] derive from B2. The conditions noted are these: with mot1_rat Slc16a1, P53987.
Variants of B2 are the subject of experiment [4]. To be noted: with mot1_rat Slc16a1, P53987. This is another data set of the same source.

On to R196E, for which, in experiment [1], the “effect of a mutation on the interaction” value was “disrupting interaction strength”. As for R86E, the “effect of a mutation on the interaction” value in experiment [1] is “with no effect”; in experiment [2], “decreasing interaction strength”.

As for R86Q, the “effect of a mutation on the interaction” value in experiment [1] was “with no effect”; in experiment [2], “decreasing interaction strength”. As to E334Q, the results for the “effect of a mutation on the interaction” value in experiment [3] and in experiment [4] were “decreasing interaction strength” and “with no effect”, respectively. With E334R, the “effect of a mutation on the interaction” value in experiment [3] is on record as “decreasing interaction strength”.

Source of the values: IntAct's records for PubMed 17127621.
